# Experimental data taken from patent publication US20150322137A1.
# Where two headings read alike, the source gives them in different places.
# Columns and labels:
# [1] = biological target: FP-TM(-)-His, His-Tag-added hMPV (JPS02-76) FP lacking the transmembrane region (amino acid residues 491 to 539 of FP) (human metapneumovirus, strain JPS02-76 (type B1)) (UniProt Q6WB98)
# [2] = biological target: FP-TM(-)-His, His-Tag-added hMPV (JPS02-76) FP lacking the transmembrane region (amino acid residues 491 to 539 of FP) (human metapneumovirus, strain JPS02-76 (type B1)) (UniProt Q6WB98); assay: SPR, Biacore T-200; antibody captured by anti-human IgG, FP-TM(-)-His as analyte
# [3] = biological target: F protein of human metapneumovirus strain JPS05-21 (type B2), on infectious virus (human metapneumovirus, strain JPS05-21 (type B2)); assay: cell-based or functional assay
# [4] = biological target: F protein of human metapneumovirus strain JPS03-178 (type A2), on infectious virus (human metapneumovirus, strain JPS03-178 (type A2)); assay: cell-based or functional assay
# [5] = biological target: F protein of human metapneumovirus strain JPS02-76 (type B1), on infectious virus (human metapneumovirus, strain JPS02-76 (type B1)) (UniProt Q6WB98); assay: cell-based or functional assay
# [6] = biological target: F protein of human metapneumovirus strain JPS03-180 (type A1), on infectious virus (human metapneumovirus, strain JPS03-180 (type A1)); assay: cell-based or functional assay
substance,measurement,setting,value
mouse anti-hMPV antibody mAb338,Kd,[1],< 10 nM
same,Kd,[2],0.531 nM
same,koff,[2],0.000228 s⁻¹
same,kon,[2],434000 M⁻¹ s⁻¹
same,"IC50, neutralizing activity (hMPV infection of LLC-MK2 cells; GraphPad Prism 6)",[3],0.221 µg/mL
same,"IC60, neutralizing activity (hMPV infection of LLC-MK2 cells; GraphPad Prism 6)",[3],0.261 µg/mL
same,"IC90, neutralizing activity (hMPV infection of LLC-MK2 cells; GraphPad Prism 6)",[3],0.547 µg/mL
same,"IC50, neutralizing activity (hMPV infection of LLC-MK2 cells; GraphPad Prism 6)",[4],0.18 µg/mL
same,"IC60, neutralizing activity (hMPV infection of LLC-MK2 cells; GraphPad Prism 6)",[4],0.239 µg/mL
same,"IC90, neutralizing activity (hMPV infection of LLC-MK2 cells; GraphPad Prism 6)",[4],0.856 µg/mL
same,"IC50, cell-to-cell spread inhibitory activity (LLC-MK2 cells stably expressing TMPRSS2)",[5],0.0215 µg/mL
same,"IC50, neutralizing activity (hMPV infection of LLC-MK2 cells; GraphPad Prism 6)",[5],0.281 µg/mL
same,"IC60, neutralizing activity (hMPV infection of LLC-MK2 cells; GraphPad Prism 6)",[5],0.338 µg/mL
same,"IC90, cell-to-cell spread inhibitory activity (LLC-MK2 cells stably expressing TMPRSS2)",[5],0.0938 µg/mL
same,"IC90, neutralizing activity (hMPV infection of LLC-MK2 cells; GraphPad Prism 6)",[5],0.772 µg/mL
same,"IC50, neutralizing activity (hMPV infection of LLC-MK2 cells; GraphPad Prism 6)",[6],0.125 µg/mL
same,"IC60, neutralizing activity (hMPV infection of LLC-MK2 cells; GraphPad Prism 6)",[6],0.16 µg/mL
same,"IC90, neutralizing activity (hMPV infection of LLC-MK2 cells; GraphPad Prism 6)",[6],0.498 µg/mL
